The values below come from patent US20220332804A1 (CSL INNOVATION, published 2022).

Holding throughout (experiment): SPR, antibody captured, C2 as analyte;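 further: biacore SPR at 37 °C, anti-C2 mAbs captured via goat anti-human IgG on CM5 chips, double-referenced sensorgrams fit to a 1:1 kinetic or steady-state model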
In general terms: Surface plasmon resonance follows binding to a sensor surface in real time, without labels.

The target in one experiment is T1, human C2 I438A (human, UniProt P06681 21-752).
T1 sequence: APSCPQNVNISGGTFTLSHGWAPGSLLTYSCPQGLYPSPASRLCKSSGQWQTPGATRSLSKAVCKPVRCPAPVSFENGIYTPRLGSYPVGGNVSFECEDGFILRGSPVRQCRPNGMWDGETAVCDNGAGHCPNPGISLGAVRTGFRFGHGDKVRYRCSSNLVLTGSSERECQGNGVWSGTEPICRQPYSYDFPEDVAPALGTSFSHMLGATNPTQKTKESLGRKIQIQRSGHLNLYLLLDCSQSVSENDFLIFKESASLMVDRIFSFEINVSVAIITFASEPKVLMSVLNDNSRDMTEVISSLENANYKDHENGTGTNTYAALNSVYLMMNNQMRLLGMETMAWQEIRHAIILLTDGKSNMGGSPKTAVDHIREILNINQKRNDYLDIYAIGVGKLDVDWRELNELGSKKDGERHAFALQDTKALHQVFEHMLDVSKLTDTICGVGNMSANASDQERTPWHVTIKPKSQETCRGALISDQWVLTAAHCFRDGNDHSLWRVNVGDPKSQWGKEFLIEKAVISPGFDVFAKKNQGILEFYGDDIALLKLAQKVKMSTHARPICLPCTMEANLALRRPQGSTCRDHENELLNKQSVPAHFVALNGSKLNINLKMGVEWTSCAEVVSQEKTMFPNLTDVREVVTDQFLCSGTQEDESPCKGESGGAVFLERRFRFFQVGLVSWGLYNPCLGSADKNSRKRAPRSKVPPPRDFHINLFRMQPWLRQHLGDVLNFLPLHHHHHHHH

The target in a further experiment is T2, human C2 S469A (human, UniProt P06681 21-752).
T2 sequence: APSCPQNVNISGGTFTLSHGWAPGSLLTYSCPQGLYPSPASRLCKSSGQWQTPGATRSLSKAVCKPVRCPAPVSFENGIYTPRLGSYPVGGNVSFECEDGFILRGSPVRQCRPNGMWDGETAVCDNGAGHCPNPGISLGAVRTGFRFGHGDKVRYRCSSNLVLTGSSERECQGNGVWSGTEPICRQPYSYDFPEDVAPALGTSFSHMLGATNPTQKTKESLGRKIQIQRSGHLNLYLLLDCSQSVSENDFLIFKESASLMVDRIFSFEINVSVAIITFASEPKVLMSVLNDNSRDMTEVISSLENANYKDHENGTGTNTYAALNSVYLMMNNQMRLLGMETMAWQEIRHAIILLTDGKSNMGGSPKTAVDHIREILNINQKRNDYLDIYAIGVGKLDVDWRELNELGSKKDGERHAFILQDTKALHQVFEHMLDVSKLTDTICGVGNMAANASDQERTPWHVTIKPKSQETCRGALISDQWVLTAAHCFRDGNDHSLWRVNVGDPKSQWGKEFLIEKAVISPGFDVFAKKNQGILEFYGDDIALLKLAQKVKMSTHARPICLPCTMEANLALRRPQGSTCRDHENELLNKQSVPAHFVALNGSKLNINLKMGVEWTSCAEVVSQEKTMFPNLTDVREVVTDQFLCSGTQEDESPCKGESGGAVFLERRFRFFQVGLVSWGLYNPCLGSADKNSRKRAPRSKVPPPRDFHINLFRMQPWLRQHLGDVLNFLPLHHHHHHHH

Another experiment addresses T3, human C2 D454A (human, UniProt P06681 21-752).
T3 sequence: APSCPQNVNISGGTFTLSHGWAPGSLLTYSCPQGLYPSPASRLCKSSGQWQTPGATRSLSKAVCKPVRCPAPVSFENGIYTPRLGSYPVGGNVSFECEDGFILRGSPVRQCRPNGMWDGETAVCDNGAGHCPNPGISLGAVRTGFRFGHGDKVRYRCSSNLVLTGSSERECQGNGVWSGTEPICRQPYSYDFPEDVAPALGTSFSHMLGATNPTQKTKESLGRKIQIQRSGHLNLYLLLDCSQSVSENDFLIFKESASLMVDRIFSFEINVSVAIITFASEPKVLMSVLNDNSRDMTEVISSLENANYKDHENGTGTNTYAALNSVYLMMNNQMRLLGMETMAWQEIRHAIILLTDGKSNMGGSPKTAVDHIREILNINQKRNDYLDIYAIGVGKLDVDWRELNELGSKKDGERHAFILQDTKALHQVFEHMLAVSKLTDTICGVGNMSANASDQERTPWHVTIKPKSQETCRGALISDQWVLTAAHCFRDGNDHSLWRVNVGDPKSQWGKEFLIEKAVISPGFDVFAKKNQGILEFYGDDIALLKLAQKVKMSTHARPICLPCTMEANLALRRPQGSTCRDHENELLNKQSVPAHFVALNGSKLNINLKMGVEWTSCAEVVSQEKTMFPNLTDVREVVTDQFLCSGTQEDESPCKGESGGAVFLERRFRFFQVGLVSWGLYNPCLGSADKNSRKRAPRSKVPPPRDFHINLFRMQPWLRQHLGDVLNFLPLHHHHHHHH

In a further experiment the target is T4, human C2 E267A (human, UniProt P06681 21-752).
T4 sequence: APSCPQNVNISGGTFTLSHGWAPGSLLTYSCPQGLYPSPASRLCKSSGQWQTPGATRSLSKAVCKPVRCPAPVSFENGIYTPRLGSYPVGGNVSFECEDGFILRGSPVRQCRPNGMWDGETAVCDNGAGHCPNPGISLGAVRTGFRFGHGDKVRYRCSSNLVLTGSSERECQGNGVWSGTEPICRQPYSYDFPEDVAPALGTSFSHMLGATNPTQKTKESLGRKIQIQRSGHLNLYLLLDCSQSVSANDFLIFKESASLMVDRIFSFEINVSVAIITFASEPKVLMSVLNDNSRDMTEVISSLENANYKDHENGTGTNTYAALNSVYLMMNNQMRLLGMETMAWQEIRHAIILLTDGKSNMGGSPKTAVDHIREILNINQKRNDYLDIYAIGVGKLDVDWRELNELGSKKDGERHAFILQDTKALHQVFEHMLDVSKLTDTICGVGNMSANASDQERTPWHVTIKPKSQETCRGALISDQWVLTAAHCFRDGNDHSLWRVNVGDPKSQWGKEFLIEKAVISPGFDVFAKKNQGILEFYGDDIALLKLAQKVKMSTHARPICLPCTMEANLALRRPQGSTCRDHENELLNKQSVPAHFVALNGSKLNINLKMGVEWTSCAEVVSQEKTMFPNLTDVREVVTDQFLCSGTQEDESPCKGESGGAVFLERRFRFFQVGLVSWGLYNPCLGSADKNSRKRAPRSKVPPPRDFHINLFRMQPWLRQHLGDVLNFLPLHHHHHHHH

Usually Kd stands for the concentration at which binding is half-saturated. Read a low Kd as a tighter complex.

B1: RF16-226 (antibody, human IgG4 S228P, lambda)
heavy: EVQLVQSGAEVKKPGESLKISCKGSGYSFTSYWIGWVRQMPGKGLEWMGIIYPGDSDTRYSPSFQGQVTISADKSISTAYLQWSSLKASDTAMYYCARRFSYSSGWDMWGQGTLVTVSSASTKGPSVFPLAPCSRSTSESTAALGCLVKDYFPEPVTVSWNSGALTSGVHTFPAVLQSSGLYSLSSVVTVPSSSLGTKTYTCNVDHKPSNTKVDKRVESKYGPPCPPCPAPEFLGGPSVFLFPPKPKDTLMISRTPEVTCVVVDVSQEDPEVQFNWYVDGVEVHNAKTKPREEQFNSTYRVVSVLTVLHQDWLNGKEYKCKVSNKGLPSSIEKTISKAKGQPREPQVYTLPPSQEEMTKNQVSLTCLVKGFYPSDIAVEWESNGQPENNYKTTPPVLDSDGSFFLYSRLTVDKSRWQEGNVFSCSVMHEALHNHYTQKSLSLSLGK
light: SYELTQPPSVSVSPGQTARITCSGDALTSKYVAWYQQKSGLAPLLVIYEDTRRPSGIPAKFSGSSSGSVATLTISGAHGDDEADYYCYSTDASGHQRVFGGGTKLTVLSQPKAAPSVTLFPPSSEELQANKATLVCLISDFYPGAVTVAWKADGSPVKAGVETTKPSKQSNNKYAASSYLSLTPEQWKSHRSYSCQVTHEGSTVEKTVAPTECS
notes: pH-dependent anti-C2 antibody from a phage display library; also called WT
Turning to B1, the Kd with human C2 I438A was determined as 8.7 nM; with human C2 S469A it was 28.2 nM; with human C2 D454A it was 247 nM; with human C2 E267A, 11.2 nM.
